Source: paper PMC9482650, “Quantitative fragmentomics allow affinity mapping of interactomes” (Nature Communications, 2022)

Experiments:
Experiment in all cases: holdup assay
Set-up in all cases: key: below the threshold = too weak to quantify, mostly under pKd 3.1 to 4
Details in all cases: plain residues with an end cap or a label only (N-terminal biotin on a linker: ado-ado)
[1] = target: NHERF4_1, Q86UT5-2
[2] = target: GRIP2_7, Q9C0E4
[3] = target: IL16_3, Q14005
[4] = target: T1, SYNJ2BP, P57105
T1 sequence (P57105 8-110, limits assumed, looked up): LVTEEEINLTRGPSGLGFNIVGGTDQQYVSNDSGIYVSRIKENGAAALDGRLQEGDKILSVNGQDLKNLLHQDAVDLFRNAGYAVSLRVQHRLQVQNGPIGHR

[5] = target: MAST1, Q9Y2H9
MAST1, Q9Y2H9, sequence (Q9Y2H9 962-1065): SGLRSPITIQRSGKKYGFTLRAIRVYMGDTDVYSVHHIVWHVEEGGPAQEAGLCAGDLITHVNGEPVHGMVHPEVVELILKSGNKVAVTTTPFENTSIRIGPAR

[6] = target: SNX27, Q96L92
[7] = target: NHERF4_2, Q86UT5
NHERF4_2, Q86UT5, sequence (Q86UT5 220-308): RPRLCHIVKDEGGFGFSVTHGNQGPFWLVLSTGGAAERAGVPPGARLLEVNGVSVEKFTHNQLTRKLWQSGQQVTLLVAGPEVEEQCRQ

[8] = target: Inadl_2, Q8NI35
Inadl_2, Q8NI35, sequence (Q8NI35 238-335): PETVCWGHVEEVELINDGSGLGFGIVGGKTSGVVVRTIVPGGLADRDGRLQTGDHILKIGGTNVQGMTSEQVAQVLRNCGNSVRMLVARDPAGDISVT

[9] = target: T2, GRIP1_7, Q9Y3R0
T2 sequence (Q9Y3R0 999-1096, limits assumed, looked up): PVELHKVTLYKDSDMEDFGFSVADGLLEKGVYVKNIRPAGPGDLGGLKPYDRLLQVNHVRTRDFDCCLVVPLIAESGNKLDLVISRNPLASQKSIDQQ

[10] = target: T3, DVL3, Q92997
T3 sequence (Q92997 244-331, limits assumed, looked up): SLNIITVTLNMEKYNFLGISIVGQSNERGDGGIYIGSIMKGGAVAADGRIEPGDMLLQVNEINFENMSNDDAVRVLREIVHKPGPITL

[11] = target: T4, SNTG2, Q9NY99
T4 sequence (Q9NY99 68-166, limits assumed, looked up): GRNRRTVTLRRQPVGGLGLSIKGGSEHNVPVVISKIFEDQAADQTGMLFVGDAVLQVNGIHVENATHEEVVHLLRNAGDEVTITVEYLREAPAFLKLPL

[12] = target: FRMPD2_1, Q68DX3
FRMPD2_1, Q68DX3, sequence (Q68DX3 770-861): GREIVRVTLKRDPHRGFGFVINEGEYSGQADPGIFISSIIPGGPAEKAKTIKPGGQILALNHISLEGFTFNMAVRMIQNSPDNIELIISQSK

[13] = target: T5, PDZD7_3, Q9H5P4
T5 sequence (Q9H5P4 857-944, limits assumed, looked up): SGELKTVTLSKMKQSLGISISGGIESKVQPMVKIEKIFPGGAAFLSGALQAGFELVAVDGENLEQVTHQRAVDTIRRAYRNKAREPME

[14] = target: T6, CARD11, Q9BXL7
T6 sequence (Q9BXL7 662-765, limits assumed, looked up): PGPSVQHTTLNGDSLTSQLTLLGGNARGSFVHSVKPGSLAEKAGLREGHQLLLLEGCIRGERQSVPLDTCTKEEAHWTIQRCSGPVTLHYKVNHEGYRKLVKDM

[15] = target: FRMPD2_3, Q68DX3
FRMPD2_3, Q68DX3, sequence (Q68DX3 1073-1166): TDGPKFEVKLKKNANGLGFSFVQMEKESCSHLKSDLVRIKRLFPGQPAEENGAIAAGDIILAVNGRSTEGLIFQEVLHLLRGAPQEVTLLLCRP

[16] = target: T7, MPP7, Q5T2T1
T7 sequence (Q5T2T1 134-230, limits assumed, looked up): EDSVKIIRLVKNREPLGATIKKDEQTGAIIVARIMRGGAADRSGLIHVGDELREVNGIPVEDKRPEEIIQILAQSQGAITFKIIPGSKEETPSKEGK

[17] = target: T8, GRIP1_4, Q9Y3R0
T8 sequence (Q9Y3R0 467-571, limits assumed, looked up): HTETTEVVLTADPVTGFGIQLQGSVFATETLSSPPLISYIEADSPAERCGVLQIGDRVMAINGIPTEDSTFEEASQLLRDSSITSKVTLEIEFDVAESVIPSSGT

[18] = target: NHERF4_4, Q86UT5
NHERF4_4, Q86UT5, sequence (Q86UT5 464-550): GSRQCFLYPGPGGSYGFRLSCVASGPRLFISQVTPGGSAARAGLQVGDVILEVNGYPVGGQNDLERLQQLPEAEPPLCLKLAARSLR

[19] = target: MAGI1_2, Q96QZ7
MAGI1_2, Q96QZ7, sequence (Q96QZ7 456-580): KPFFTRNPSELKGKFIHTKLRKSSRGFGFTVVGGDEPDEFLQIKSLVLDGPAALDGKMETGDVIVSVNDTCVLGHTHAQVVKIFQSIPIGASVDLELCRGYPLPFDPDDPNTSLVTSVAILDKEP

[20] = target: HTRA2, O43464
HTRA2, O43464, sequence (O43464 355-458): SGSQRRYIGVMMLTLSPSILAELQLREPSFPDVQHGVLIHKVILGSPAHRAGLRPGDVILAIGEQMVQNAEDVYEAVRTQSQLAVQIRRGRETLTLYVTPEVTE

[21] = target: DLG4_3, P78352
DLG4_3, P78352, sequence (P78352 306-403): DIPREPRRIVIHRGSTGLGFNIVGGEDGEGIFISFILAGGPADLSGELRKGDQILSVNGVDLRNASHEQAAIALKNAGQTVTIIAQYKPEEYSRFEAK

[22] = target: GRID2IP_2, A4D2P6
GRID2IP_2, A4D2P6, sequence (A4D2P6 272-370): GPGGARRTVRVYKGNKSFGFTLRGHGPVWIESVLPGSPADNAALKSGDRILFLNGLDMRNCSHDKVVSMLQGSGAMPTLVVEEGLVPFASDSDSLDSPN

[23] = target: IL16_1, Q14005
IL16_1, Q14005, sequence (Q14005 210-306): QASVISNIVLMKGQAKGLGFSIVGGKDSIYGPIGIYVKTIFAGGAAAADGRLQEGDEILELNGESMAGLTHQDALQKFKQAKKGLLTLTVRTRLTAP

[24] = target: T9, GRIP1_3, Q9Y3R0
T9 sequence (Q9Y3R0 247-346, limits assumed, looked up): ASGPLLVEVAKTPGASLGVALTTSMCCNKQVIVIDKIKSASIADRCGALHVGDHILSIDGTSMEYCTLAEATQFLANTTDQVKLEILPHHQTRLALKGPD

[25] = target: DLG1_2, Q12959
DLG1_2, Q12959, sequence (Q12959 314-412): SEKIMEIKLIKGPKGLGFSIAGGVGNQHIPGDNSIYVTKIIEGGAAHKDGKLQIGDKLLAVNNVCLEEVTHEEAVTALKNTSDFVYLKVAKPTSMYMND

[26] = target: T10, LIN7A, O14910
T10 sequence (O14910 103-200, limits assumed, looked up): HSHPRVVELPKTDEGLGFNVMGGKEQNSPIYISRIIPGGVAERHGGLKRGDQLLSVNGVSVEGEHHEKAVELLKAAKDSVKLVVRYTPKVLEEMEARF

[27] = target: GRIP2_4, Q9C0E4
GRIP2_4, Q9C0E4, sequence (Q9C0E4 446-548): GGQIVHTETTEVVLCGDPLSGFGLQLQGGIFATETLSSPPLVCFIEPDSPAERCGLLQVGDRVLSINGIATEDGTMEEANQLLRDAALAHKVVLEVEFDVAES

[28] = target: DLG4_2, P78352
DLG4_2, P78352, sequence (P78352 155-259): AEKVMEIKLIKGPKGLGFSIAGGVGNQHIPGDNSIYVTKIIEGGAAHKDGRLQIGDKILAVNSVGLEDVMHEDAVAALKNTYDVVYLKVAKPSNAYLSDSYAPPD

IL16_3, Q14005, sequence (Q14005 1107-1207): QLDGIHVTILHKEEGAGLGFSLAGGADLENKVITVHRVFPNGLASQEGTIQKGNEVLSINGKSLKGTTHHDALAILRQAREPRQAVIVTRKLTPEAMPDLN
NHERF4_1, Q86UT5-2, sequence (Q86UT5 other isoform, or with tags, fused parts or gaps): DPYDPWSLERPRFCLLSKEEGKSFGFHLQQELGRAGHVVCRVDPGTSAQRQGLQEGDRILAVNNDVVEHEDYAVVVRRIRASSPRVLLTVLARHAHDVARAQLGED
GRIP2_7, Q9C0E4, sequence (Q9C0E4 934-1023): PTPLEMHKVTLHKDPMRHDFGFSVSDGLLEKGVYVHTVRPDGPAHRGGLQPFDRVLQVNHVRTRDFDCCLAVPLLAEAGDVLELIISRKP

- pKd [1]: below the threshold
- pKd [2]: below the threshold
- pKd [3]: below the threshold
- pKd [4]: below the threshold
- pKd [5]: 3.68
- pKd [6]: below the threshold
- pKd [7]: below the threshold
- pKd [8]: below the threshold
- pKd [9]: below the threshold
- pKd [10]: below the threshold
- pKd [11]: below the threshold
- pKd [12]: below the threshold
- pKd [13]: 3.92
- pKd [14]: below the threshold
- pKd [15]: below the threshold
- pKd [16]: below the threshold
- pKd [17]: below the threshold
- pKd [18]: below the threshold
- pKd [19]: below the threshold
- pKd [20]: below the threshold
- pKd [21]: below the threshold
- pKd [22]: below the threshold
- pKd [23]: below the threshold
- pKd [24]: below the threshold
- pKd [25]: below the threshold
- pKd [26]: below the threshold
- pKd [27]: below the threshold
- pKd [28]: below the threshold
Binder: EDLEDEWEVI [TECPR2, O15040]
